What was measured:
[1] = target: FLAG tagged human Ang2 (Alexis Biochemicals) (human) (UniProt O15123); assay: competition ELISA, FLAG-hAng2 (0.02 nM) on coated hTie2/Fc
[2] = target: FLAG-tagged human Ang2 (human) (UniProt O15123); assay: competition ELISA: FLAG-hAng2 binding to coated hTie2-Fc
[3] = target: FLAG tagged human Ang2 (Alexis Biochemicals) (human) (UniProt O15123); assay: AlphaScreen competition, periplasmic extract, FLAG-hAng2 / biotin-hTie2/Fc
[4] = target: FLAG tagged human Ang2 (Alexis Biochemicals) (human) (UniProt O15123); assay: competition ELISA, periplasmic extract, FLAG-hAng2 on hTie2/Fc

Sequence of FLAG-tagged human Ang2 (human) (O15123 19-496): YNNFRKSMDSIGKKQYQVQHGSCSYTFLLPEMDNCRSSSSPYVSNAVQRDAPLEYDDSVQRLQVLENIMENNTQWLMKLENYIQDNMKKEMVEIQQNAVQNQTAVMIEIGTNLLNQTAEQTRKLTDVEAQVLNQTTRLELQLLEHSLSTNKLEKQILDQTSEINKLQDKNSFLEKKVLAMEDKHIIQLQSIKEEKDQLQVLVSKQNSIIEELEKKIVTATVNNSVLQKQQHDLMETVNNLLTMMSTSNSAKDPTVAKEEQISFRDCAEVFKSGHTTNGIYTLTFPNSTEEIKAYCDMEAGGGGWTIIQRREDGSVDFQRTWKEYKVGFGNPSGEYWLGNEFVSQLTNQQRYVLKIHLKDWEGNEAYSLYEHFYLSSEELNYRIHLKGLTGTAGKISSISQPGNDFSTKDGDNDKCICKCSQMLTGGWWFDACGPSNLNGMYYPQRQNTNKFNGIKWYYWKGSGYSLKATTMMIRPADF
Sequence of FLAG tagged human Ang2 (Alexis Biochemicals) (human) (O15123 19-496): as above

Binder | IC50 [1] [nM] | IC50 [2] [nM] | % inh [3] [%] | % inh [4] [%]
VHH 2F04 (VHH, not shown: small tags and cut ends) VHH: EVQLVESGGGLVQAGGSLRLSCAASGFAFDDHLIGWFRQAPGKEREAVSCISRSAGSTYYADSVKGRFTISSDNAKNTVYLQMNSLKADDTAVYYCAAGPAWGRPASPLPYEYDYWGQGTQVTVSS | 2.8 | – | – | –
VHH 6H05 (VHH, not shown: small tags and cut ends) VHH: EVQLVESGGGLVQAGGSLRLSCAASGFTFDDYAIGWFRQAPGKEREGVSCISSSDGSTAYADSVKGRFTISSDNAKNTVYLQMNSLKPEDTAVYYCTAVPATRRTPQMVAANVCWLAEYEYDYWGQGTQVTVSS | 5.3 | – | – | –
VHH 3F02 (VHH, not shown: small tags and cut ends) VHH: EVQLVESGGGLVQVGDSLRLACAASGRTFSTYLMVGWFRQAPGKEREFAAGIWSSGDTAYADSVKGRFTISRDNAKNTVYLQMNSLKTEDTAVYYCAGSYDGNYYIPGFYKDWGQGTQVTVSS | 9.1 | – | – | –
VHH 16G09 (VHH, not shown: small tags and cut ends) VHH: EVQLVESGGGLVQAGGSLRLVCSASGIDFSINAMAWYRQAPGKQREWVAFMINDSSTDYTDSVKGRFTISRDSTKNILYLQMNNLNVEDTAVYYCNTAYEQHTYWGQGTQVTVSS | 11.3 | – | – | –
VHH 14H02 (VHH, not shown: small tags and cut ends) VHH: EVQLVESGGGLVQAGGSLRLSCAASGFTFDEYAIGWFRQAPGKEREGVSYISSSDGSTYYADSVKGRVTSSSDNAKNTVYLQMNSLKPEDTAVYYCAARPTLRVRLDNDRHHLLYEYEYDYWGQGTQVTVSS | 64.4 | – | – | –
VHH 2G01 (VHH, not shown: small tags and cut ends) VHH: EVQLVESGGGLVQAGGSLRLSCAASGRTISSYAMAWFRQAPGKEREFVAAISLSGDSTYYADSVKGRFTISRDNAKNTVYLQMNSLKPEDTAEYYCAATDWDFEDIPEYYCSGYGCDESLFDSWGQGTQVTVSS | – | – | 55 | 39
VHH 15A06 (VHH, not shown: small tags and cut ends) VHH: EVQLVESGGGLVQAGGSLRLSCAASGRTFSSYAMGWFRQAPGKEREFVARISWNGGSTYHADSVKGRFTISRDNPKNTVYLQMDSLKPEDAAIYYCAASIALVGGVTPHSYDYWGQGTQVTVSS | – | – | 72 | 0
VHH 21G10 (VHH, not shown: small tags and cut ends) VHH: EVQLVESGGGLVQAGGSLRLSCAASGFTLDDYAIGWFRQAPGKEREGVSCISSSDGSTTYADSVKGRFTVSSDNAKNTVYLQMNSLKPEDTAVYYCAAGLRGRYYRGTYSLVCAPYEYDFWGQGTQVTVSS | 6.2 | – | – | –
VHH 15H04 (VHH, not shown: small tags and cut ends) VHH: EVQLVESGGGLVQAGGSLGLSCAASERTLPSYVMGWFRQAPGKELEFVAGISWSSGRTYYTDSVKGRFTISRDAAENTWYLQMNSLKPEDTAVYYCASNSVSEPTLHTWQYEASYDYWGQGTQVTVSS | 18.6 | – | 57 | 82
VHH 8A11 (VHH, not shown: small tags and cut ends) VHH: EVQLVESGGGLVQAGGSLRLSCAASGRTFSSYAMGWFRQAPGKELEFVTAVSWSGGSTYYADSVKGRFTISRDSAKNTVYLQMNSLKPEDTAVYYCAAQSTIVEVTTLEAYDYWGQGTQVTVSS | 30.2 | – | 57 | 67
VHH 23C10 (VHH, not shown: small tags and cut ends) VHH: EVQLVESGGGLVQPGGSLRLSCAASGFALDYYAIGWFRQAPGKEREGVSCISSSDGSTYYADSVKGRFTISRDNAKNTVYLQMNSLKPEDTAVYYCATDSLGYGSSCRMAPYEYDYWGQGTQVTVSS | – | – | 57 | 37
VHH 22C07 (VHH, not shown: small tags and cut ends) VHH: EVQLVESGGGLVQAGGSLRLSCAASGFTFDDYAIGWFRQAPGKEREGVSCISSSDGSTYYADSVKGRFTISSDNAKNTVYLQMNSLKPEDTAVYYCAADFIISSKRLCLDLFGSRGQGTQVTVSS | 11 | – | 73 | 78
VHH 10C06 (VHH, not shown: small tags and cut ends) VHH: EVQLVESGGGLVQAGGSLRLSCVASGFTFDDYAIGWFRQAPGKEREGVSCISSSDGSTYYADSVKGRFTISGDNAKNTVYLQMNSLKPEDTAVYYCAAGITPCSDYTQTYEYDVWGQGTQVTVSS | 7.7 | – | – | –
VHH 22G11 (VHH, not shown: small tags and cut ends) VHH: EVQLVESGGGLVQAGGSLRLSCAVSGFTFDDYAIGWFRQAPGKEREGVSCISRSDGSPYYADSVKGRFTISSDNAKGTVYLQMSSLKPEDTAVYYCAASWSGAYYSGTYYCDRLYEYDAWGQGTQVTVSS | – | – | 96 | 100
VHH 10A03 (VHH, not shown: small tags and cut ends) VHH: EVQLVESGGGSVQAGGSLRLSCAASERTFSPYAMGWFRQAPGKEREFVAHITWSAGSTYYADSVKGRFTISRDNAKNTVYLQMNSLKPEDTAVYYCAAKRRYGIVDRDYNDWGQGTQVTVSS | – | – | 67 | 0
VHH 12B03 (VHH, not shown: small tags and cut ends) VHH: EVQLVESGGGLVQSGGSLRLSCAASGFALDYYTIGWFRQAPGKEREGVSCISGGDTSTYYADSVKGRFTISRDNAKNTVYLQMNSLKPEDTAVYYCATDSAGVPAGPAAVYGSTCSRLEYDYWGQGAQVTVSS | 4.6 | – | – | –
VHH 19A03 (VHH, not shown: small tags and cut ends) VHH: EVQLVESGGGLVQAGGSLRLSCAASGFTFDDYAIAWFRQAPGKEREGISCITPSDDRTYYADSVKGRFIISSDNAKNTVYLQMNSLKPEDTADYYCAAVPRLRGLGYWPYPEYEYDYWGQGTQVTVSS | – | – | 74 | 74
VHH 25B01 (VHH, not shown: small tags and cut ends) VHH: EVQLVESGGGLVQAGGSLRLSCAASGFTFDDYAIGWFRQAPGKEREGVSCISSSDGSTYYADSVKGRFTISSDNAKNTVYLQMNSLKPEDTAVYYCAAAWGASRLPIGTMPPYEYDYWGQGTQVTVSS | – | – | 61 | 5
VHH 3A07 (VHH, not shown: small tags and cut ends) VHH: EVQLVESGGGLVQPGGSLRLSCAASGFTLDYDAIGWFRQAPGKEREGVSCITSSDGITYYADSVKGRFTISRDNAKNTVYLQMNSLKPEDTAVYYCATGNRRIYYSDYALACFPYEYDYWGQGTQVTVSS | 21 | – | – | –

More lines, now with the values ahead:

IC50 [1] [nM] | IC50 [2] [nM] | % inh [3] [%] | % inh [4] [%] | Binder
– | 1.2 | – | – | VHH 00898 (VHH, not shown: small tags and cut ends) VHH: EVQLVESGGGLVQAGGSLRLSCAASGFTLDDYAIGWFRQAPGKEREGVSAIRDNDGSTYYADSVKGRFTISSDNDKNTVYLQMNSLKPEDTAVYYCAAVPAGRLRFGEQWYPLYEYDAWGQGTLVTVSS
– | 0.7 | – | – | VHH 00923 (VHH, not shown: small tags and cut ends) VHH: DVQLVESGGGLVQPGGSLRLSCAASGFTLDDYAIGWFRQAPGKEREGVSAIRDNGGSTYYADSVKGRFTISSDNSKNTVYLQMNSLRPEDTAVYYCAAVPAGRLRFGEQWYPLYEYDAWGQGTLVTVSS
– | 0.9 | – | – | VHH 00899 (VHH, not shown: small tags and cut ends) VHH: EVQLVESGGGLVQAGGSLRLSCAASGFTLDDYAIGWFRQAPGKEREGVSSIRDIDGSTYYADSVKGRFTISSDNDKNTVYLQMNSLKPEDTAVYYCAAVPAGRLRFGEQWYPLYEYDAWGQGTLVTVSS
– | 1.3 | – | – | VHH 00902 (VHH, not shown: small tags and cut ends) VHH: EVQLVESGGGLVQAGGSLRLSCAASGFTLDDYAIGWFRQAPGKEREGVSAIRDSGGSTYYADSVKGRFTISSDNDKNTVYLQMNSLKPEDTAVYYCAAVPAGRLRFGEQWYPLYEYDAWGQGTLVTVSS
– | 0.2 | – | – | VHH 00900 (VHH, not shown: small tags and cut ends) VHH: EVQLVESGGGLVQAGGSLRLSCAVSGFTLDDYAIGWFRQAPGKEREGVSSIRDNDGSTYYADSVKGRFTISSDNDKNTVYLQMNSLKPEDTAVYYCAAVPAGRLRFGEQWYPLYEYDAWGQGTLVTVSS
– | 0.25 | – | – | VHH 00926 (VHH, not shown: small tags and cut ends) VHH: EVQLVESGGGLVQPGGSLRLSCAASGFALDYYAIGWFRQAPGKEREGVSCISSSGGITYYADSVKGRFTISRDNSKNTVYLQMNSLRPEDTAVYYCATDSGGYIDYDCQGLGYDYWGQGTLVTVSS
– | 0.17 | – | – | VHH 00931 (VHH, not shown: small tags and cut ends) VHH: EVQLVESGGGLVQPGGSLRLSCAASGFALDYYAIGWFRQAPGKEREGVSCISSSGGITYYADSVKGRFTISRDNSKNTVYLQMNSLRPEDTAVYYCATESGGYIDYDCSGLGYDYWGQGTLVTVSS
– | 0.22 | – | – | VHH 00928 (VHH, not shown: small tags and cut ends) VHH: EVQLVESGGGLVQPGGSLRLSCAASGFALDYYAIGWFRQAPGKEREGVSCISSSGGITYYADSVKGRFTISRDNSKNTVYLQMNSLRPEDTAVYYCATDSGGYIDYDCSGLGYDYWGQGTLVTVSS
– | 0.22 | – | – | VHH 00927 (VHH, not shown: small tags and cut ends) VHH: EVQLVESGGGLVQPGGSLRLSCAASGFALDYYAIGWFRQAPGKEREGVSCISSSGGITYYADSVKGRFTISRDNSKNTVYLQMNSLRPEDTAVYYCATDSGGYIDYDCRGLGYDYWGQGTLVTVSS
– | 0.19 | – | – | VHH 00930 (VHH, not shown: small tags and cut ends) VHH: EVQLVESGGGLVQPGGSLRLSCAASGFALDYYAIGWFRQAPGKEREGVSCISSSGGITYYADSVKGRFTISRDNSKNTVYLQMNSLRPEDTAVYYCATESGGYIDYDCRGLGYDYWGQGTLVTVSS
– | 0.15 | – | – | VHH 00929 (VHH, not shown: small tags and cut ends) VHH: EVQLVESGGGLVQPGGSLRLSCAASGFALDYYAIGWFRQAPGKEREGVSCISSSGGITYYADSVKGRFTISRDNSKNTVYLQMNSLRPEDTAVYYCATESGGYIDYDCQGLGYDYWGQGTLVTVSS
